Source: patent US20150353909

What was measured:
[1] = target: HA3-RUB-GST (UniProt Q9SHE7)
[2] = target: HA3-SUMO-GST (UniProt P55852)
[3] = test system: HA3-UBQ-GST [GST: P08515]
[4] = target: K48-tetraubiquitin chains (UniProt P0CG48)
[5] = target: K63-tetraubiquitin chains (UniProt P0CG48)
[6] = test system: purified recombinant linear UB dimers
[7] = test system: purified recombinant linear UB tetramers
[8] = test system: purified recombinant linear UB trimers

Measured: in vitro deubiquitylation activity

His-tagged OTU11a, sequence (Q0V869 whole entry): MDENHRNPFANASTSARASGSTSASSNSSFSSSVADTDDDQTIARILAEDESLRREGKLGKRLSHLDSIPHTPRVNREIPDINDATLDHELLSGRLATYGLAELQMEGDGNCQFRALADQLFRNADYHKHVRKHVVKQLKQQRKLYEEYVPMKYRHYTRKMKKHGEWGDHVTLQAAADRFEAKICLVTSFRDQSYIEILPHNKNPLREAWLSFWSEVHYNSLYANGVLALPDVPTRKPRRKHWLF
His-tagged OTU12, sequence (Q9SGA5 whole entry): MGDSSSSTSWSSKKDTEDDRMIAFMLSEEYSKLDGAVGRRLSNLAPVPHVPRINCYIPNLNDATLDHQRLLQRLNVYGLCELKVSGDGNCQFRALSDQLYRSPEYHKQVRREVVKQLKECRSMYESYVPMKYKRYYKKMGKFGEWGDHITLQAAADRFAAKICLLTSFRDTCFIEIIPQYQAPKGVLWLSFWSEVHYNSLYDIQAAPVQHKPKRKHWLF
K48-tetraubiquitin chains, sequence (P0CG48 whole entry, looked up): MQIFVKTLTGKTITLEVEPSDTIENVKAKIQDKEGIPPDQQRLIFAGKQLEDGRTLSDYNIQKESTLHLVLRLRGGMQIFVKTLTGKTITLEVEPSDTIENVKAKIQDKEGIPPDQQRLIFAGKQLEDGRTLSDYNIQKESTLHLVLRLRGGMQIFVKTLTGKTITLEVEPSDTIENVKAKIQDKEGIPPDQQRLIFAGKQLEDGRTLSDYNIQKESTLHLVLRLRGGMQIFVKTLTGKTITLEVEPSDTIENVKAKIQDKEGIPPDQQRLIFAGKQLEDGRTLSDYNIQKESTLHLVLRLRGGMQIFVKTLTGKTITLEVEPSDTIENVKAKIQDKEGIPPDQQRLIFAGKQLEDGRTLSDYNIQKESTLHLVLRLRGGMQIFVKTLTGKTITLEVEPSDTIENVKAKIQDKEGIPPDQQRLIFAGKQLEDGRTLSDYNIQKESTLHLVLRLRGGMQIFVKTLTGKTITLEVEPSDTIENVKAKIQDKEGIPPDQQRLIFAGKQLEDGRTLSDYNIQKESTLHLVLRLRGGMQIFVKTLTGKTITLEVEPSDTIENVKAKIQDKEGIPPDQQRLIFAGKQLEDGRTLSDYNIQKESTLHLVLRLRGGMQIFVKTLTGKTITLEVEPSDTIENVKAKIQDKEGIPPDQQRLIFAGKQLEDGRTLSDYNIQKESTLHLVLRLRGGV
K63-tetraubiquitin chains, sequence (P0CG48 whole entry, looked up): as above

His-tagged OTLD1a
-: [1] | [2] | [3] | [4] | [5] | [6] | [7] | [8]

His-tagged OTU5b
-: [1] | [2] | [3] | [4] | [5] | [6] | [7] | [8]

His-tagged OTU11a
-: [1] | [2] | [3] | [4] | [5] | [6] | [7] | [8]

His-tagged OTU12
-: [1] | [2] | [3] | [4] | [5] | [6] | [7] | [8]

OTU4d
-: [1] | [2] | [3] | [4] | [5] | [6] | [7] | [8]
